B1: CPEB3 Ribozyme (parent)
chain: GGGGGCCACAGCAGAAGCGUUCACGUCGCGGCCCCUGUCAGAUUCUGGUGAAUCUGCGAAUUCUGCUGU

Among the data in the RNAGym collection of RNA variant scans (doi:10.7554/elife.80360) are self-cleavage values, retold here.

The variants in this data set derive from B1. As to the kind of experiment: self-cleavage, relative activity (ratio to wild type); higher = more cleavage; co-transcriptional.
On to GGGGGCCACAGCAGAAGCGUUCACGUCGCGGCCCCUGUCAGAUUCUGGUGAAUCUGCGAAUCCUGCUCU [U62C G68C], for which the self-cleavage was found to be 0.806. In the case of GGGGGCCACAGCAGAAGCGUUCACGUCGCGGCCCCUGUCAGAUUCUGGUGAAUCUGCGAAUCCUGCUUU [U62C G68U] it was 0.934; in that of GGGGGCCACAGCAGAAGCGUUCACGUCGCGGCCCCUGUCAGAUUCUGGUGAAUCUGCGAAUCCUGCUAU [U62C G68A], 1; in that of GGGGGCCACAGCAGAAGCGUUCACGUCGCGGCCCCUGUCAGAUUCUGGUGAAUCUGCGAAUGCUGCUAU [U62G G68A], 0.894. Regarding GGGGGCCACAGCAGAAGCGUUCACGUCGCGGCCCCUGUCAGAUUCUGGUGAAUCUGCGAAUGCUGCUUU [U62G G68U], the self-cleavage came out at 0.683.

With GGGGGCCACAGCAGAAGCGUUCACGUCGCGGCCCCUGUCAGAUUCUGGUGAAUCUGCGAAUCUUGCUGU [U62C C63U], the self-cleavage turned out to be 0.795. Take GGGGGCCACAGCAGAAGCGUUCACGUCGCGGCCCCUGUCAGAUUCUGGUGAAUCUGCGAAUCGUGCUGU [U62C C63G]: the self-cleavage came to 0.545.

In the case of GGGGGCCACAGCAGAAGCGUUCACGUCGCGGCCCCUGUCAGAUUCUGGUGAAUCUGCGAAUCCUGAUGU [U62C C66A], the self-cleavage came out at 0.5. As to GGGGGCCACAGCAGAAGCGUUCACGUCGCGGCCCCUGUCAGAUUCUGGUGAAUCUGCGAAUACUGCUCU [U62A G68C], the self-cleavage is 0.949. GGGGGCCACAGCAGAAGCGUUCACGUCGCGGCCCCUGUCAGAUUCUGGUGAAUCUGCGAAUACUGCUAU [U62A G68A]: the self-cleavage turned out to be 0.924. On to GGGGGCCACAGCAGAAGCGUUCACGUCGCGGCCCCUGUCAGAUUCUGGUGAAUCUGCGAAUACCGCUGU [U62A U64C], for which the self-cleavage stood at 0.61.

Consider GGGGGCCACAGCAGAAGCGUUCACGUCGCGGCCCCUGUCAGAUUCUGGUGAAUCUGCGAAUACAGCUGU [U62A U64A], for which the self-cleavage was 0.452. In the case of GGGGGCCACAGCAGAAGCGUUCACGUCGCGGCCCCUGUCAGAUUCUGGUGAAUCUGCGAAUGCUACUGU [U62G G65A], the self-cleavage worked out at 0.285.

For the variant GGGGGCCACAGCAGAAGCGUUCACGUCGCGGCCCCUGUCAGAUUCUGGUGAAUCUGCGAAUGCUCCUGU [U62G G65C], the self-cleavage came to 0.475.

For GGGGGCCACAGCAGAAGCGUUCACGUCGCGGCCCCUGUCAGAUUCUGGUGAAUCUGCGAAGUCUGCUUU [U61G G68U], the self-cleavage came to 0.826.

For the variant GGGGGCCACAGCAGAAGCGUUCACGUCGCGGCCCCUGUCAGAUUCUGGUGAAUCUGCGAAGUCUGCUCU [U61G G68C], the self-cleavage is 0.867. As to GGGGGCCACAGCAGAAGCGUUCACGUCGCGGCCCCUGUCAGAUUCUGGUGAAUCUGCGAAGUCUGCUAU [U61G G68A], the self-cleavage amounted to 0.988.

On to GGGGGCCACAGCAGAAGCGUUCACGUCGCGGCCCCUGUCAGAUUCUGGUGAAUCUGCGAAUUGUCCUGU [C63G G65C], for which the self-cleavage is 0.366.

For GGGGGCCACAGCAGAAGCGUUCACGUCGCGGCCCCUGUCAGAUUCUGGUGAAUCUGCGAAUGCUGCUGC [U62G U69C], the self-cleavage is 1.03. With GGGGGCCACAGCAGAAGCGUUCACGUCGCGGCCCCUGUCAGAUUCUGGUGAAUCUGCGAAUGCUGCUGG [U62G U69G] the figure was 1.01; with GGGGGCCACAGCAGAAGCGUUCACGUCGCGGCCCCUGUCAGAUUCUGGUGAAUCUGCGAAUGCUGCUGA [U62G U69A], 0.937; with GGGGGCCACAGCAGAAGCGUUCACGUCGCGGCCCCUGUCAGAUUCUGGUGAAUCUGCGAAUACUACUGU [U62A G65A], 0.546. Turning to GGGGGCCACAGCAGAAGCGUUCACGUCGCGGCCCCUGUCAGAUUCUGGUGAAUCUGCGAAUUAAGCUGU [C63A U64A], the self-cleavage turned out to be 0.62.

As to GGGGGCCACAGCAGAAGCGUUCACGUCGCGGCCCCUGUCAGAUUCUGGUGAAUCUGCGAAUUACGCUGU [C63A U64C], the self-cleavage came out at 0.639. For the variant GGGGGCCACAGCAGAAGCGUUCACGUCGCGGCCCCUGUCAGAUUCUGGUGAAUCUGCGAAUUGUGCUUU [C63G G68U], the self-cleavage worked out at 0.584. For the variant GGGGGCCACAGCAGAAGCGUUCACGUCGCGGCCCCUGUCAGAUUCUGGUGAAUCUGCGAAUUGUGCUAU [C63G G68A], the self-cleavage turned out to be 0.849.

GGGGGCCACAGCAGAAGCGUUCACGUCGCGGCCCCUGUCAGAUUCUGGUGAAUCUGCGAAUUAUGCUGU [C63A]: the self-cleavage amounted to 0.919. Consider GGGGGCCACAGCAGAAGCGUUCACGUCGCGGCCCCUGUCAGAUUCUGGUGAAUCUGCGAAUUGUGCUGU [C63G], for which the self-cleavage was found to be 0.87. Take GGGGGCCACAGCAGAAGCGUUCACGUCGCGGCCCCUGUCAGAUUCUGGUGAAUCUGCGAAUGGUGCUGU [U62G C63G]: the self-cleavage is 0.334. With GGGGGCCACAGCAGAAGCGUUCACGUCGCGGCCCCUGUCAGAUUCUGGUGAAUCUGCGAAUGUUGCUGU [U62G C63U] the figure was 0.661; with GGGGGCCACAGCAGAAGCGUUCACGUCGCGGCCCCUGUCAGAUUCUGGUGAAUCUGCGAAUGAUGCUGU [U62G C63A], 0.856. GGGGGCCACAGCAGAAGCGUUCACGUCGCGGCCCCUGUCAGAUUCUGGUGAAUCUGCGAAUCCUGCAGU [U62C U67A]: the self-cleavage came out at 0.738.

With GGGGGCCACAGCAGAAGCGUUCACGUCGCGGCCCCUGUCAGAUUCUGGUGAAUCUGCGAAUCCUGCGGU [U62C U67G], the self-cleavage came out at 0.865. With GGGGGCCACAGCAGAAGCGUUCACGUCGCGGCCCCUGUCAGAUUCUGGUGAAUCUGCGAAUCCUGCCGU [U62C U67C] the figure was 0.687; with GGGGGCCACAGCAGAAGCGUUCACGUCGCGGCCCCUGUCAGAUUCUGGUGAAUCUGCGAAUGCUGUUGU [U62G C66U], 0.579. GGGGGCCACAGCAGAAGCGUUCACGUCGCGGCCCCUGUCAGAUUCUGGUGAAUCUGCGAAUGCUGAUGU [U62G C66A]: the self-cleavage was 0.376.

As for GGGGGCCACAGCAGAAGCGUUCACGUCGCGGCCCCUGUCAGAUUCUGGUGAAUCUGCGAAUACUGCAGU [U62A U67A], the self-cleavage amounted to 0.924.

GGGGGCCACAGCAGAAGCGUUCACGUCGCGGCCCCUGUCAGAUUCUGGUGAAUCUGCGAAUACUGCCGU [U62A U67C]: the self-cleavage came out at 0.908.

For GGGGGCCACAGCAGAAGCGUUCACGUCGCGGCCCCUGUCAGAUUCUGGUGAAUCUGCGAAUUAUGCGGU [C63A U67G], the self-cleavage stood at 0.758.
